According to publication PMC10773984:

Experiments:
[1] = molecular target: p53-like peptide F19A, displayed on E. coli; experiment: flow cytometry on cells
[2] = molecular target: p53-like peptide W23A, displayed on E. coli; experiment: flow cytometry on cells

Mdm2-GST (from UniProt Q00987 1-491) (natural protein)
relative Kd (against the wild type p53-like peptide) [1]: > 10000 | relative Kd (against the wild type p53-like peptide) [2]: > 10000
